# Experimental data as given in patent publication US20060183678A1 (Novartis, published 2006).
# T1: rat NiG-D6 (rat, UniProt Q9JK11 763-975)
# T1 construct: pET28 construct from bacteria
# T1 sequence: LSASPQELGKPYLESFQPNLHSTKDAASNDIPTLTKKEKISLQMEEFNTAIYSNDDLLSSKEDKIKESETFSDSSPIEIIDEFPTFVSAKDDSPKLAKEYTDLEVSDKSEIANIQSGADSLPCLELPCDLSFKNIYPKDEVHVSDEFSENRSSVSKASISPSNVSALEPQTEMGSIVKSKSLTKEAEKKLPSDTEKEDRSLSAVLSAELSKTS
# T2: Nogo-66 (rat, UniProt Q9JK11 1019-1083)
# T2 construct: also called Nogo-66 fragment
# T2 sequence: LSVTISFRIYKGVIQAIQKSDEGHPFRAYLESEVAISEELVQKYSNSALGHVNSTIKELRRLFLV
# T3: human NiG (human, UniProt Q9NQC3 186-1004)
# T3 construct: Expressed in E. coli from pET28a-hNiG; also called hNiG; recombinant human NIG; not shown: N-terminal His- and T7-tag from pET28a
# T3 sequence: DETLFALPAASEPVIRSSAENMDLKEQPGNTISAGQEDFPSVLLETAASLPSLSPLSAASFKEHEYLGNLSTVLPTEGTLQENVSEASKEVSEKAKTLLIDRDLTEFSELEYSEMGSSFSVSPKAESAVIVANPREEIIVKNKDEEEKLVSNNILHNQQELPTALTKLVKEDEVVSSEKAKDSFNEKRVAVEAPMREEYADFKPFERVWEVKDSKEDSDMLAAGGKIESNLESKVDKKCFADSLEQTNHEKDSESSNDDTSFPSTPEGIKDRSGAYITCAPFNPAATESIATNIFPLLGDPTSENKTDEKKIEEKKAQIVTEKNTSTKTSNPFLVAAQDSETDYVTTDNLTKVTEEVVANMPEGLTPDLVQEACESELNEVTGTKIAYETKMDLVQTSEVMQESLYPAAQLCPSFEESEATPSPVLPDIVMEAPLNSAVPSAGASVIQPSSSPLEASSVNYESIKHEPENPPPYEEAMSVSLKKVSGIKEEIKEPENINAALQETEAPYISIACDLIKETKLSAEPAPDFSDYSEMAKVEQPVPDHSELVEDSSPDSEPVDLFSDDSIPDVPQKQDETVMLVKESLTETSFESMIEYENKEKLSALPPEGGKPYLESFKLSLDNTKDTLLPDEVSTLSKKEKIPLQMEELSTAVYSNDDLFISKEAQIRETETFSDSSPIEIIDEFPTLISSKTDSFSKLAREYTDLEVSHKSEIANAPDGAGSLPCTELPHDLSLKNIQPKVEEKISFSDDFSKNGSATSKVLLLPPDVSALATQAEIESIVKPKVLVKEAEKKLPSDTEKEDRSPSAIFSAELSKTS
# T4: rat NiG (rat, UniProt Q9JK11 174-979)
# T4 construct: also called recombinant rat NIG
# T4 sequence: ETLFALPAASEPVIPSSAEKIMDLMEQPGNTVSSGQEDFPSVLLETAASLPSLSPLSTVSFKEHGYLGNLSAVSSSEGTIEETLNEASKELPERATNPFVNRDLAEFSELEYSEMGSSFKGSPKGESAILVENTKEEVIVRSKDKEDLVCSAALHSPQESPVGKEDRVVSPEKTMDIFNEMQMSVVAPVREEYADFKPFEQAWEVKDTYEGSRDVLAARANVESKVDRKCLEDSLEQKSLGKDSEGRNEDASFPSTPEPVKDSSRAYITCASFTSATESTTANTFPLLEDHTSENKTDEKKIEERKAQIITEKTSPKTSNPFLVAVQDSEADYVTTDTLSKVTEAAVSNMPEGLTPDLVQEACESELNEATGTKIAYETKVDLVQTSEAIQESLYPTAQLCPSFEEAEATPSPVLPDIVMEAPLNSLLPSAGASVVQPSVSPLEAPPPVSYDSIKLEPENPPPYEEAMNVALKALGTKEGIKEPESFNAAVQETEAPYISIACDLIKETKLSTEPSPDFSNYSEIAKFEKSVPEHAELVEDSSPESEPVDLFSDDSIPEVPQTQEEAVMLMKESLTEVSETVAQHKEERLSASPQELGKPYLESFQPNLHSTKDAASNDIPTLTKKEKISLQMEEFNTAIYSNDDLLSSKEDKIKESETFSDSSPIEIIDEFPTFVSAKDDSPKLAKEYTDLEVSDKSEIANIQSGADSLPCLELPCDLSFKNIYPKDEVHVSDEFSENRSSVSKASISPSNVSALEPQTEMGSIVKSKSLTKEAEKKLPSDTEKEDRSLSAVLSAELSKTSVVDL
# T5: mouse NiG (mouse, UniProt Q99P72 188-974, limits assumed)
# T5 construct: domain: NiG-exon3; also called mNiG-exon3; mouse NiG-exon3
# T5 sequence (looked up): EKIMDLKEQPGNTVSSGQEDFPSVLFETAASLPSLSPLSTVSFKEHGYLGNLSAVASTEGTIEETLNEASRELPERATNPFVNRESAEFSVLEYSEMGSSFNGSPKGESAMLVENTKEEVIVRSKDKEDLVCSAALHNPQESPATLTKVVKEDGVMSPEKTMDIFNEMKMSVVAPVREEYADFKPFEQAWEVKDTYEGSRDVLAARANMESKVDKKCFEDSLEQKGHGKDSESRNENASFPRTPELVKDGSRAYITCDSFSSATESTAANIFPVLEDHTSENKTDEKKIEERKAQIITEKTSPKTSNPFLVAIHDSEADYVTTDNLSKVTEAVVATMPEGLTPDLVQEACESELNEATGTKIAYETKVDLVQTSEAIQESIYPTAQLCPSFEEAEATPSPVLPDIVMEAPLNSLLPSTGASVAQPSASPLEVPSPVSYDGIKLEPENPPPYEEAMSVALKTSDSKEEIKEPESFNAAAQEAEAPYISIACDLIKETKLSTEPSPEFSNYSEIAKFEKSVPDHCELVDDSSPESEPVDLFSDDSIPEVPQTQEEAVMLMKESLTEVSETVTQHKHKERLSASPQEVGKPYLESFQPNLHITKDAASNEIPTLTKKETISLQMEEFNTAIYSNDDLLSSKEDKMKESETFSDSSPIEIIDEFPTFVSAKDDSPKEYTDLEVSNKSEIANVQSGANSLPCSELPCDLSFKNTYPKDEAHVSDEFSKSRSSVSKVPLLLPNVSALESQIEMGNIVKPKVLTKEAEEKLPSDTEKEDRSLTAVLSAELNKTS
# T6: rat NogoA-623-640 (rat)
# T6 construct: Free peptide used for preincubation with 11C7; also called immunogenic peptide
# T6 peptide: SYDSIKLEPENPPPYEEA
# What was measured:
# [1] = biological target: T1, rat NiG-D6; assay: ELISA, fragment coated on plate
# Procedure: (§1) Greiner 96 well PS plates (#655161) are coated with 0.4-2 ug/ml Nogo protein fragments in PBS (100ul/well) covered and incubated 4 hours at room temperature. Plates are flicked and refilled with 200 ul/well blocking buffer (PBS+2% BSA), covered and incubated. 1 h at RT or overnight at 4° C., then washed 4 times with water and PBS. Different concentrations of mouse 11C7 mAb or 11C7 Fab are diluted in PBS+2% BSA (100 u/well), and incubated 2 h at RT or overnight at 4° C. Wash step is repeated and Goat anti-mouse IgG conjugated with horse radish peroxidase (HRP) at a dilution of 1:5000 (ICN #55550) in PBS/0.1% BSA/0.1% Nonidet 40 (100 uVwell) is added and incubated. 2h at RT or overnight at 4° C. and wash step is repeated. HRP reaction is started by adding 100 uvwell BM blue POD (Roche #1484281) and incubafed in the dark at RT for 15 minutes. H2SO4 50 ul/well 1 M is added to stop HRP substrate reaction and the optical density is determinated using a microplate reader (Packard Spectra Count) set to 450 nm.
# [2] = biological target: T2, Nogo-66; assay: ELISA, fragment coated on plate
# Procedure: as §1
# [3] = biological target: T3, human NiG; assay: SPR (BIAcore 2000), NiG amine-coupled on CM5 chip, antibody injected
# Procedure: (§2) The affinity of the mouse 11C7 mAb and of the 11C7 Fab are measured by surface plasmon resonance (SPR) using a BIAcore 2000 optical biosensor (Biacore, Uppsala, Sweden) according to the manufacture's instructions (see FIG. 2). Recombinant human, mouse, and rat NIG are covalently attached to three separate flow cells of a CM5 sensor chip using amine-coupling chemistry. Briefly; the carboxymethlyladed dextran matrix is activated by injecting 35 ul of a solution containing 0.025M NHS and 0.1M EDC. […] The deactivation of the remaining NHS-ester group is performed by injection of 35 ul of 1M ethanolamine hydrochloride (pH 8.5). The surface of the sensor chip is regenerated by injecting 5 ul 0.1M HCl. […] After each injection the sensor chip surface is regenerated with the injection of 10 ul 0.1M HCl without loss of binding activity on the surface. The kinetic constants, ka and kd and the affinity constants KA and KD are evaluated using the BIAevaluations 3.0 software supplied by the manufacturer.
# (§3) Affinity measurement in BIAcore: The kinietc and the affinity binding constants of the mouse 11C7 mAb and the 11C7 derived monovalent Fab fragment to recombinat NogoA are measured in real time using surface plasmon resonance (SPR) technology (Biacore). For this analysis recombinant human, mouse and rat NIGs are coupled on three independent sensor chip surfaces and different concentrations of the antibodies are injected. Kinetic parameters of the binding interactions are derived from the sensorgrams by non-linear curve fitting. […] The lower affinity of the Fab fragment results from a decrease of both kinetic constants, association and dissociation (ka, kd).
# [4] = biological target: T4, rat NiG; assay: as above
# Procedure: as §2, §3
# [5] = biological target: T5, mouse NiG; assay: as above
# Procedure: as §2, §3
# [6] = biological target: T6, rat NogoA-623-640; assay: peptide competition of cell surface staining of living rat oligodendrocytes
# Procedure: Immunocytochemistry: Optic nerve oligodendrocytes are prepared as described (Schwab, Caroni, 1988, Neuron). Three to five day-old cultures grown on poly-L-lysine coated coverslips are washed twice with PBS, fixed in 4% (w/v) paraformaldehyde (PFA), 5% (w/v) sucrose in PBS for 15 min at room temperature (RT) and non-specific binding is blocked with 10% (v/v) FCS. Cells were then incubated with mouse 11C7 (1:100). Secondary antibodies are goat-anti-mouse TRITC (Jackson ImmunoResearch Laboratories). For cell surface staining, two day-old rat optic nerve cultures are incubated with monoclonal antibody in medium for 25 min at RT. Secondary alkaline phosphatase conjugated antibodies (Milan Analytica, Lausanne) are used at 1:7,500 in 0.1 M maleic acid with 1% (w/v) blocking reagent (1 hr). The cultures are washed twice with maleic acid buffer, once with alkaline phosphatase buffer (0.1 M Tris-HCl pH 9.5, 0.1 M NaCl, 5 mM MgCl₂) and the staining is developed for 3 hrs at room temperature with 0.175 mg/ml BCIP (Sigma) and 0.338 mg/ml NBT (Sigma) in alkaline phosphatase buffer.
# Cell surface staining is present on all major and small processes and on the cell body. Thus, the Nogo-A specific part of the molecule recognised by mouse 11C7 mAb is exposed to the extracellular space on the plasma membrane of oligodendrocytes.
# [7] = biological target: T3, human NiG; assay: SPR (BIAcore 2000), NiG amine-coupled on CM5 chip, Fab injected
# Procedure: as §2, §3
binding result [1],binding result [2],Ka [3] [M⁻¹],Kd [3] [nM],koff [3] [s⁻¹],kon [3] [M⁻¹ s⁻¹],Ka [4] [M⁻¹],Kd [4] [nM],koff [4] [s⁻¹],kon [4] [M⁻¹ s⁻¹],Ka [5] [M⁻¹],Kd [5] [nM],koff [5] [s⁻¹],kon [5] [M⁻¹ s⁻¹],binding result [6],Ka [7] [M⁻¹],Kd [7] [nM],koff [7] [s⁻¹],kon [7] [M⁻¹ s⁻¹],Binder
no binding (tested: 0.02 to 2.5 nM),no binding (tested: 0.02 to 2.5 nM),9.73e+09,0.103,4.6e-05,448000,2.25e+09,0.444,0.000389,876000,5.2e+09,0.192,0.000106,552000,binds,,,,,"mouse 11C7 mAb (antibody, V domains shown, also called mouse 11C7-IgG1; mAb 11C7) VH: EVKLLESGGGLVQPGGSLKLSCVVSGFDFRRNWMSWVRQAPGKGLEWIGEINPDSSKINYTPSLKDKFIISRDNAKNTLYLQVSTVRSEDTALYYCVRPVWMYAMDYWGQGTSVTVSS VL: not shown"
no binding (tested: 0.025 to 25 nM),no binding (tested: 0.025 to 25 nM),,,,,,,,,,,,,,1.4e+08,7.14,0.000528,72900,"11C7 Fab (Fab, V domains shown, also called 11C7 derived monovalent Fab fragment; Fab monovalent fragment) VH: EVKLLESGGGLVQPGGSLKLSCVVSGFDFRRNWMSWVRQAPGKGLEWIGEINPDSSKINYTPSLKDKFIISRDNAKNTLYLQVSTVRSEDTALYYCVRPVWMYAMDYWGQGTSVTVSS VL: not shown"
